Experimental data from patent US20200339702A1 (ULTRAHUMAN THIRTEEN, published 2020).
Where a chain is given by its changes, count along the chain named. One block for each binder: values may come before it.

Tests used:
[1] = biological target: T1, human ERBB3 His tagged, monomeric (human, UniProt P21860 20-643, biotinylated in the Alphascreen assays (sites not given)); assay: SPR (Biacore), captured IgG, monomeric ERBB3-His analyte
T1 construct: Used unbiotinylated as Biacore analyte and biotinylated in Alphascreen; treated as one molecule; also called human ERBB3-His (Acrobiosystems); biotinylated monomeric human ERBB3
Experimental: Affinity (KD) of purified IgGs was determined via SPR with antigen in-solution on a Biacore® 3000 (GE). A mouse anti-human antibody (CH1 specific) was immobilized on a CM5 Sensor Chip to a level of 2000 RU in acetate buffer at pH 4.5 using amine coupling following the Wizard instructions for two channels. One channel was used for background signal correction. The standard running buffer HBS-EP pH 7.4 was used. Regeneration was performed with a single injection of 10 μl of 10 mM Glycine at pH 1.5 at […]. IgG samples were injected for 2 minutes at 50 nM at 30 μl/min followed by an off-rate of 60 seconds. The monomeric antigen (human ERBB3 His tagged or rhesus monkey ERBB3 His tag) was injected in two fold serial dilutions from 3 nM down to 0.2 nM, for 2 minutes at 30 μl/min followed by an off-rate of 300 seconds. The obtained sensorgrams were analysed using the Biacore® 3000 evaluation (BlAevaluation) software. The KD was calculated by simultaneous fitting of the association and dissociation phases to a 1:1 Langmuir binding model.
Biacore® analyses of binding affinity were performed for all IgGs to solution-phase, monomeric human and rhesus ERBB3 proteins.

[2] = biological target: T2, rhesus ERBB3 on transiently transfected HEK-293 cells (rhesus monkey (Macaca mulatta), UniProt P21860 20-1342 (human entry)); assay: flow cytometry, rhesus ERBB3-transfected HEK-293 cells, IgG1null titrated
T2 construct: also called rhesus ERBB3+ HEK-293 cells
T2 chain: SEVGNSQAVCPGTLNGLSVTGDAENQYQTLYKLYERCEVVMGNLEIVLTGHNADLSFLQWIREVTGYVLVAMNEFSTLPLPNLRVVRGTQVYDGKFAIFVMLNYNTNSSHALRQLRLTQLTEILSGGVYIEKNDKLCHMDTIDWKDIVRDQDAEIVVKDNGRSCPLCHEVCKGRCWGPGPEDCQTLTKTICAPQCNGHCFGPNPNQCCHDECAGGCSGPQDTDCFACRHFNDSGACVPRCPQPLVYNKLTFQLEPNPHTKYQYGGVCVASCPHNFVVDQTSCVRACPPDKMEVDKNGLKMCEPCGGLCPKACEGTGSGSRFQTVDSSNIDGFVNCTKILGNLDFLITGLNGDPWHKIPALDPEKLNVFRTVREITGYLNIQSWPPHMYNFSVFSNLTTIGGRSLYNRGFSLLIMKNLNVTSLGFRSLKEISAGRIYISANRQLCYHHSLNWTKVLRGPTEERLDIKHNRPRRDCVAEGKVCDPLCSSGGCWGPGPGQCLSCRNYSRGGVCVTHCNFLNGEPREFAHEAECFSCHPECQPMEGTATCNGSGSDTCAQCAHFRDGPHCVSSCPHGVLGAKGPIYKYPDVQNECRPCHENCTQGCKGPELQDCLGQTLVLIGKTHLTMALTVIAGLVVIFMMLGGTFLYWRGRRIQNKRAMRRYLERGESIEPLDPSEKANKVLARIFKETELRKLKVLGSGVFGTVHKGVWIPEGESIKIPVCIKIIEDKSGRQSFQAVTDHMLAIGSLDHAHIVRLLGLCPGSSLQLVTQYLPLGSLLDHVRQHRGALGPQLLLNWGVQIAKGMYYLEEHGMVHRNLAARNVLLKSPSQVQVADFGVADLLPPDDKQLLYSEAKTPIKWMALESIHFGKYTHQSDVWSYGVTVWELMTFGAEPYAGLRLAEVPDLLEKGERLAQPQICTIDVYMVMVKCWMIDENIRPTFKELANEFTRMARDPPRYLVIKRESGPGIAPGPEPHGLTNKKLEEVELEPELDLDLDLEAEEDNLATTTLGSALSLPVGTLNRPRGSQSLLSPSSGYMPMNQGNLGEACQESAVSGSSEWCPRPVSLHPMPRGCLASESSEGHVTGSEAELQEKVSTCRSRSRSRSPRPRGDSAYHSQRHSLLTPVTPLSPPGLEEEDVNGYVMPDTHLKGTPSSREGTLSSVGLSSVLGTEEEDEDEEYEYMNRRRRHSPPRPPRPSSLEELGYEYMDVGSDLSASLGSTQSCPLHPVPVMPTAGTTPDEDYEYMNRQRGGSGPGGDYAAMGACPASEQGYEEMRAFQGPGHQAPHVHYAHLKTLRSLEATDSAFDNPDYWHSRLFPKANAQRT
Experimental: Purified IgGs were tested in FACs for binding to human and rhesus monkey ERBB3 expressed on transiently transfected HEK-293 cells and HEK-293 wild-type cells. The IgG samples were titrated in three-fold serial dilutions starting at 500 nM to 0.008 nM. Binding of IgGs was detected with a mouse anti-human IgG conjugated to FITC. Results were analyzed by examining the Mean Fluorescence Intensity (MFI) of 10000 cells per sample in the BL-1 channel detector of a flow cytometer (Attune™ NxT Acoustic Focusing Cytometer, Invitrogen/ThermoFisher Scientific).
Antibodies to ERBB3 were analysed for concentration-dependent binding at the cell surface via flow cytometry. HEK-293 cells were transiently transfected with either human or rhesus ERBB3 full-length cDNAs. Anti-ERBB3 IgGs and an isotype control were then all tested in IgG1null format, over a concentration range of 500-0.008 nM for binding to human (FIG. 5A) and rhesus (FIG. 5B) transfected cells.

Kd [1]: 0.27 nM | koff [1]: 0.0035 s⁻¹ | kon [1]: 1.3e+07 M⁻¹ s⁻¹ | EC50 (read off the curve) [2]: ~0.4 nM
B1: 09D12 IgG1null (antibody, V domains shown)
VH: QVQLVESGGGLVKPGGSLRLSCAASGFTFSDYGMSWIRQAPGKGLEWVSTISDGGSYTYYADSVKGRFTISRDNAKNSLYLQMNSLRAEDTAVYYCAREYGDYDGFDYWGQGTLVTVSS
VL: DIQMTQSPSSLSASVGDRVTITCRASQSISSYLNWYQQKPGKAPKLLIYAASSLDSGVPSRFSGSGSGTDFTLTISSLQPEDFATYYCLQYDSTPLTFGGGTKVEIK
notes: Human IgG1null and human Ckappa

Kd [1]: 1.2 nM | koff [1]: 0.073 s⁻¹ | kon [1]: 6.2e+07 M⁻¹ s⁻¹ | EC50 (read off the curve) [2]: ~0.9 nM
B2: TTP IgG1null (antibody, V domains shown)
VH: B1 VH with G54S, Y57T, T58I
VL: B1 VL with D55Q
notes: Designer clone; Human IgG1null and human Ckappa; also called Total Theoretically Possible clone
